One assay has as its target T1, FXIIa (Factor XIIa) (human, UniProt P00748 373-615, limits assumed).
T1 sequence (looked up): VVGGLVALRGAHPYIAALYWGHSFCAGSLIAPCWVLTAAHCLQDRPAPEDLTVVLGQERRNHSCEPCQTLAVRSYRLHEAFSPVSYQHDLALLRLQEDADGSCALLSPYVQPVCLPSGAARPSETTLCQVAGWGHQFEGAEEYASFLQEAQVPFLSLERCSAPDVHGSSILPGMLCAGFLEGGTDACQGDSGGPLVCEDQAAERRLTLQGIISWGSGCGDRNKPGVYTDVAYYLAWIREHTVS
In words: substrate-based activity assay.

The target of assay [1] is T2, human Kallikrein-related peptidase 5 (hKLK5) (human, UniProt Q9Y337 67-293, limits assumed).
T2 construct: Active protease in substrate-based activity assays; also called stratum corneum tryptic enzyme (SCTE)
Nature of the assay: substrate-based activity assay.

Assay [2] has as its target T3, human Kallikrein-related peptidase 7 (hKLK7) (human, UniProt P49862 30-253).
T3 construct: Active protease in substrate-based activity assays; also called stratum corneum chymotryptic enzyme (SCCE)
In words: substrate-based activity assay.

For assay [3], the target named is T4, human serum albumin (HSA) (human, UniProt P02768 25-609). Nature of the assay: fluorescence polarization. A general note: In fluorescence polarisation assays a small probe gives low polarisation when free and higher when bound to something large.
In assay [4] the target is T4, human serum albumin (HSA). Nature of the assay: fluorescence polarization, dilution series of human serum.
In a further assay the target is mouse KLK7 (mKLK7) (mouse, UniProt Q91VE3 26-249). Nature of the assay: substrate-based activity assay, same conditions as for hKLK.
The target in assay [5] is T3, human Kallikrein-related peptidase 7 …. In words: activity assay in the presence of 25 µM HSA.
The target of assay [6] is T2, human Kallikrein-related peptidase 5 …. Nature of the assay: activity assay in the presence of 25 µM HSA.
For assay [7], the target named is T5, mouse serum albumin (MSA) (mouse, UniProt P07724 25-608).
T5 construct: also called mouse albumin
Nature of the assay: fluorescence polarization, dilution series of mouse albumin in PBS.

The next assay addresses mouse KLK5 (mKLK5) (mouse). In words: substrate-based activity assay, same conditions as for hKLK.

Experimental findings from EP3766894A1 (Ecole Polytechnique Federale De Lausanne (EPFL) EPFL-TTO, dated 2021) are described below.

Positions of bridges follow the written chain, without caps; N, C: chain ends. Non-standard residues stand in square brackets, D forms with d. Primed or numbered codes have the meaning given here. Chains are numbered I, II in the order given. No end group written: not given here. *: point of attachment. Palmitoyl = CCCCCCCCCCCCCCCC(=O)*; Nle = CCCC[C@H](N)C(=O)O; PEG2″ = not defined here

T3 sequence (P49862 30-253 limits assumed): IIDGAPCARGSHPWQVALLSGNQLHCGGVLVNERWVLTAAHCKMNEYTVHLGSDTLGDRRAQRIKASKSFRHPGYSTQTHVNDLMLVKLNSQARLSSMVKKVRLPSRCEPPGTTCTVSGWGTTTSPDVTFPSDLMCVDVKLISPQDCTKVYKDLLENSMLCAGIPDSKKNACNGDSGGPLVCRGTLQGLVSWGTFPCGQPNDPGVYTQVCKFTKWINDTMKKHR
T2 sequence (Q9Y337 67-293 limits assumed): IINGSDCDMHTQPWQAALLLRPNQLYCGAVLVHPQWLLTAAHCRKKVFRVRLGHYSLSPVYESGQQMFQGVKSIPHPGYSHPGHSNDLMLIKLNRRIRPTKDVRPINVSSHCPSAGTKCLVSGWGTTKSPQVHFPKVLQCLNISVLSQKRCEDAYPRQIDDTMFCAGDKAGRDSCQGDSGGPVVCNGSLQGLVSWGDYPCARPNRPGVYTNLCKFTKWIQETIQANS
Sequence of mouse KLK7 (mKLK7) (Q91VE3 26-249 limits assumed): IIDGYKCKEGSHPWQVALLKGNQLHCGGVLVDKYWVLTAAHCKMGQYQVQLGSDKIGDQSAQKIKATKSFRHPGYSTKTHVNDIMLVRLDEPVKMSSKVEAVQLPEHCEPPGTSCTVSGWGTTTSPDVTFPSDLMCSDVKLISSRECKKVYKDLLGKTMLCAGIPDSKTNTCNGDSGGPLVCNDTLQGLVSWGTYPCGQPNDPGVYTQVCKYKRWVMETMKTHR
T5 sequence (P07724 25-608 limits assumed): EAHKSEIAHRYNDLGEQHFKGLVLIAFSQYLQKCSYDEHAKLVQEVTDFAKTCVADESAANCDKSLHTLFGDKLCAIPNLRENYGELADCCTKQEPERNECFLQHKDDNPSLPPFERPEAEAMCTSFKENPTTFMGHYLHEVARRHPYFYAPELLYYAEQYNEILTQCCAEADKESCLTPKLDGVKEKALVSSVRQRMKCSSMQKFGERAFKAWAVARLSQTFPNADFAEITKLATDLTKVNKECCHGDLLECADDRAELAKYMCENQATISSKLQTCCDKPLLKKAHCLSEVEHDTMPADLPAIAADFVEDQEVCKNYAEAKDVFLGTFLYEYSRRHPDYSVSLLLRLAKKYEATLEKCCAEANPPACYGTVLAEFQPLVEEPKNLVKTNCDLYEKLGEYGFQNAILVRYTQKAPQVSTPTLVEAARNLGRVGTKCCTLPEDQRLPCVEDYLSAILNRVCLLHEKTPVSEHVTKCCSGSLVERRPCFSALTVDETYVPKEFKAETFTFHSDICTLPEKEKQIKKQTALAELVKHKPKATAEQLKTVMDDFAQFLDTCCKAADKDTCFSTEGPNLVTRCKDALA

Take GCTRQYPC (linker 2-8 via 1,3‑dibromoacetone) [peptide 035 (lead KLK5 inhibitor)]: the results for the inhibition constant (Ki) (with FXIIa (Factor XIIa); in assay [1]) were 40000 nM and 2.2 nM, respectively.

B1: peptide 114 with norleucine in position five (peptide)
peptide: PCLY[Nle]ARC
modifications: linker 2-8 via 1,3‑dibromoacetone
notes: No peptide number is printed for the untagged norleucine derivative
Molecule B1 returned a Ki in assay [2] of 7 nM.

On to PCLYLARCS (bridge 2-8; not fully specified (bridges)) [peptide 096 (lead KLK7 inhibitor)], for which, in assay [2], the Ki stood at 16 nM.

B2: peptide 284 (albumin tag variant, 2-naphthalenecarboxylic acid) (peptide)
peptide: EYEKEYEK
modifications: not fully specified; N-terminal cap based on peptide 266 with 2-naphthalenecarboxylic acid; Lys 4 side chain acylated with palmitic acid; 5(6)-FAM on the side chain of the additional C-terminal Lys
With B2, in [3], the Kd came out at 147 nM.

B3: peptide 282 (albumin tag variant, biphenyl-3-carboxylic acid) (peptide)
peptide: EYEKEYEK
modifications: not fully specified; N-terminal cap based on peptide 266 with biphenyl-3-carboxylic acid; Lys 4 side chain acylated with palmitic acid; 5(6)-FAM on the side chain of the additional C-terminal Lys
The molecule B3 came in with a Kd in [3] of 132 nM.

B4: KLK7 inhibitor 096-tag (C-terminal albumin tag conjugate of 096) (peptide)
peptide 1: PCLYLARCSGKG
peptide 2: EYEK(Palmitoyl)EYE
modifications: bridge I:2-I:8; not fully specified (N-terminus, bridges); also: N-terminal fluorescein via PEG2, chain not given here, chain 2 tag joined via PEG2 to Lys11 side chain of chain 1
For the molecule B4, binding in [4] was characterised by a dissociation constant (Kd) of 164 nM. The molecule also had a half-inhibitory concentration (IC50) with mouse KLK7 (mKLK7) of 20 nM. The inhibitory constant (Ki) in assay [5] came out at 32 nM.

B5: N-terminal albumin tag conjugate of KLK5 inhibitor 035 (peptide)
peptide 1: GCTRQYPC
peptide 2: {5(6)‑carboxyfluorescein}-EYEK(Palmitoyl)EYE
modifications: bridge I:2-I:8; not fully specified (C-terminus, bridges); also: chain 2 C-terminus joined via PEG2 to chain 1 N-terminus, linker to a chain's N/C-terminus via PEG2
For B5, the binding result in assay [4] is listed as “binds”. For the same molecule, in assay [6], the inhibition constant (Ki) turned out to be 23 nM and the “fold loss in activity against the cyclic peptide alone” value is 10 fold.

Turning to {fluorescein-PEG2″}-EYEK(Palmitoyl)EYE (also called fluorescein-tag) [albumin tag (F-tag)], in assay [7], binding was put at a Kd of 4200 nM.

B6: KLK5 inhibitor 035-tag (C-terminal albumin tag conjugate of 035) (peptide)
peptide 1: GCTRQYPCGKG
peptide 2: EYEK(Palmitoyl)EYE
modifications: bridge I:2-I:8; not fully specified (N-terminus, bridges); also: N-terminal fluorescein via PEG2, chain not given here, chain 2 tag joined via PEG2 to Lys10 side chain of chain 1
In turn, B6 came in with a dissociation constant (Kd) in assay [4] of 119 nM. In addition, in the assay with mouse KLK5 (mKLK5), the half-inhibitory concentration (IC50) came to 2 nM. Further, in assay [6], the inhibition constant Ki stood at 1.2 nM.

One may read the Ki as a measure of affinity in units of concentration, obtained from inhibition or displacement. As usually defined, the Kd is the constant that tells how readily two partners part at equilibrium. Lower therefore signals tighter binding. One may read the IC50 as the concentration needed to halve the response being measured. Lower therefore signals inhibition by little substance.
